Laboratory results published in paper PMC5974136.

Target: Tyr24 (position 24, …)
Experiment: NMR
Details: 10 C; no added salt (NaCl, KCl absent); 10 mM phosphate only; 10 mM phosphate buffer (initial pH 7), 0.1 mM DSS; soluble, predominantly disordered repetitive domain; about 1.5-2.2 mM protein

B1: MaSp1 repetitive domain 15-mer (15 contiguous copies of the consensus repeat of major ampullate spidroin 1) (Nephila clavipes (Trichonephila clavipes); … (protein)
chain: GRGGLGGQGAGAAAAAGGAGQGGYGGLGSQGTSGRGGLGGQGAGAAAAAGGAGQGGYGGLGSQGTSGRGGLGGQGAGAAAAAGGAGQGGYGGLGSQGTSGRGGLGGQGAGAAAAAGGAGQGGYGGLGSQGTSGRGGLGGQGAGAAAAAGGAGQGGYGGLGSQGTSGRGGLGGQGAGAAAAAGGAGQGGYGGLGSQGTSGRGGLGGQGAGAAAAAGGAGQGGYGGLGSQGTSGRGGLGGQGAGAAAAAGGAGQGGYGGLGSQGTSGRGGLGGQGAGAAAAAGGAGQGGYGGLGSQGTSGRGGLGGQGAGAAAAAGGAGQGGYGGLGSQGTSGRGGLGGQGAGAAAAAGGAGQGGYGGLGSQGTSGRGGLGGQGAGAAAAAGGAGQGGYGGLGSQGTSGRGGLGGQGAGAAAAAGGAGQGGYGGLGSQGTSGRGGLGGQGAGAAAAAGGAGQGGYGGLGSQGTSGRGGLGGQGAGAAAAAGGAGQGGYGGLGSQGTS
- pKa: 10.25 ± 0.02
